Like-named read-outs stand apart in the source and are kept apart here.
Legend:
[1] = molecular target: T1, DR5-61 (human DR5 residues 61 to 183, gp67DR5l61-s183-PH) (human); experiment: complex isolated by gel filtration, then crystallized
T1 construct: expressed in SF9 cells, cleaved with PreScission protease
T1 chain: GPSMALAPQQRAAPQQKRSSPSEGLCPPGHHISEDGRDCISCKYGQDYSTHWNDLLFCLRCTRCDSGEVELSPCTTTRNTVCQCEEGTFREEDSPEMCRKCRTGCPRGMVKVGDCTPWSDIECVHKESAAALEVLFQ

[2] = molecular target: cynomolgus DR5 (construct used not stated) (cynomolgus); experiment: SPR kinetics (Biacore), cynomolgus DR5
[3] = molecular target: T2, cell-bound human DR5 (Colo205 and other human cell lines) (human, UniProt O14763 56-440); experiment: FACS saturation binding, apparent KD, cell-bound human DR5
T2 construct: endogenous DR5 of the cell lines

[4] = molecular target: T3, cell-bound cynomolgus DR5 (CHO-K1 cells transfected with the full length cynoDR5 gene) (cynomolgus); experiment: FACS saturation binding, apparent KD, cell-bound cynomolgus DR5
T3 construct: whole, on cells

[5] = molecular target: cynomolgus DR5 (construct used not stated) (cynomolgus); experiment: SPR kinetics, cynomolgus DR5
[6] = molecular target: T2, cell-bound human DR5 (Colo205 and other …); experiment: FACS, periplasmic extract on Colo205 cells, anti-myc detection
[7] = molecular target: T4, cynomolgus DR5-Fc fusion protein (cyno DR5 amino acids 56 to 213 fused with human IgG1 Fc) (cynomolgus; human); experiment: SPR (Biacore), CM5 chip coated with cynomolgus DR5-Fc, 1 to 100 nM NB construct
[8] = molecular target: T4, cynomolgus DR5-Fc fusion protein (cyno …); experiment: ELISA, periplasmic extract, plate coated with cynomolgus DR5-Fc, anti-myc detection
[9] = molecular target: T3, cell-bound cynomolgus DR5 (CHO-K1 cells …); experiment: FACS, periplasmic extract on CHO-K1 cells expressing cynomolgus DR5, anti-myc detection
[10] = molecular target: T5, DR5-54 (human DR5 residues 54 to 183, gp67DR5a54-s183-PH) (human, UniProt O14763 54-183); experiment: complex isolated by gel filtration, then crystallized
T5 construct: expressed in SF9 cells, cleaved with PreScission protease; the complex with 11H6 was treated with trypsin before crystallization

[11] = molecular target: T2, cell-bound human DR5 (Colo205 and other …); experiment: cell-based or functional assay
[12] = molecular target: T2, cell-bound human DR5 (Colo205 and other …); experiment: cell-based or functional assay; remark: listed apart in the source
[13] = molecular target: T6, short (182 amino acids) human DR5-Fc fusion protein (R&D Systems, catalogue #631-T2/CF) (human, UniProt O14763 56-210); experiment: SPR (Biacore), CM5 chip coated with human DR5-Fc, 1 to 100 nM NB construct
T6 construct: bought; not shown: Fc part of the bought fusion protein; not described

[14] = molecular target: T2, cell-bound human DR5 (Colo205 and other …); experiment: cell-based or functional assay; remark: listed apart in the source
[15] = molecular target: T2, cell-bound human DR5 (Colo205 and other …); experiment: cell-based or functional assay; remark: listed apart in the source

B1: 4E6 hu, pAX111-4E6 (monomeric NB construct for crystallography) (VHH)
VHH: EVQLLESGGGLVQPGGSLRLSCAASGRTFGSIRVGWFRQAPGKGREFVSAINRNDGTTYYADSVKGRFTISRDNSKNTVYLQMNSLRPEDTAVYYCAAGLQYNRAADRVPVGAVYWGQGTLVTVSS
[1]
  binding result: binds

B2: 4E6-hx (monovalent; humanized FR regions of 4E6-Hu with the CDR3 of 4E6), produced in E. coli (VHH)
VHH: EVQLLESGGGLVQPGGSLRLSCAASGRTFGSIRVGWFRQAPGKGREFVSAINRNDGTTYYADSVKGRFTISRDNSKNTVYLQMNSLRPEDTAVYYCAAGLQYNRSADRVPVGAVYWGQGTLVTVSS
[2]
  Kd: 3.4 nM
[3]
  Kd: 0.34 nM
[4]
  Kd: 7.1 nM

B3: 11H6 (monomeric anti-DR5 NB construct) (VHH)
VHH: EVQLVESGGGLVQPGGSLRLSCAASGTFDKINNMGWYRQAPGKQRDLVAQITPGGITDYADSVKGRFTISRDNAKDTMYLQMNSLKPEDTAVYFCNAEILKRAYIDVYVNYWGQGTQVTVSS
notes: llama VHH; periplasmic extract or purified monovalent material from E. coli; also called 11H6 parent; wild type 11H6; not shown: C-terminal c-myc tag and (His)6 tag coded by the vector
[5]
  Kd: 320 nM
[6]
  mean count fluorescence: 723
[7]
  Kd: 9.2 µM
[8]
  ABS405 nm: 0.133 ABS405 nm
[9]
  mean count fluorescence: 292

B4: 11H6 hu, pAX100-11H6 (monomeric NB construct for crystallography) (VHH)
VHH: EVQLLESGGGLVQPGGSLRLSCAASGTFDKINNMGWYRQAPGKQRDLVAQITPGGITDYADSVKGRFTISRDNSKNTLYLQMNSLRPEDTAVYYCNAEILKRAYIDVYVNYWGQGTLVTVSS
notes: the complex with DR5-54 was treated with trypsin before crystallization
[10]
  binding result: binds

B5: 11H6-hu (monovalent humanized variant of 11H6) (VHH)
VHH: EVQLLESGGGLVQPGGSLRLSCAASGTFDKINNMGWYRQAPGKQRDLVAQITPGGITDYADSVKGRFTISRDNSKNTLYLQMNSLRPEDTAVYYCNAEILKRAYIDVYVNYWGQGTLVTVSS
notes: purified monovalent material
[5]
  Kd: 170 nM

B6: 10F1 tetra (tetravalent anti-DR5 NB construct) (other)
chain: EVQLVESGGGLVQPGGSLRLSCAASGFTFSRYWMYWVRQAPGKGLEWVSAINSGGGDTYYRDSVRGRFTISRDNFKNTLYLQMNSLKSEDTAVYYCAKAEGPPTFSLIRTMTVDPGAQGTQVTVSSGGGGSGGGGSGGGGSGGGGSGGGGSGGGGSGGGGSEVQLVESGGGLVQPGGSLRLSCAASGFTFSRYWMYWVRQAPGKGLEWVSAINSGGGDTYYRDSVRGRFTISRDNFKNTLYLQMNSLKSEDTAVYYCAKAEGPPTFSLIRTMTVDPGAQGTQVTVSSGGGGSGGGGSGGGGSGGGGSGGGGSGGGGSGGGGSEVQLVESGGGLVQPGGSLRLSCAASGFTFSRYWMYWVRQAPGKGLEWVSAINSGGGDTYYRDSVRGRFTISRDNFKNTLYLQMNSLKSEDTAVYYCAKAEGPPTFSLIRTMTVDPGAQGTQVTVSSGGGGSGGGGSGGGGSGGGGSGGGGSGGGGSGGGGSEVQLVESGGGLVQPGGSLRLSCAASGFTFSRYWMYWVRQAPGKGLEWVSAINSGGGDTYYRDSVRGRFTISRDNFKNTLYLQMNSLKSEDTAVYYCAKAEGPPTFSLIRTMTVDPGAQGTQVTVSS
notes: four VHH units in one chain joined by GlySer linkers; not shown: C-terminal c-myc/His6 tag from vector pAX51
[11]
  IC50, cell survival, 184A1: ≥ 20 nM
  IC50, cell survival, A549: ≥ 20 nM
  IC50, cell survival, ARPE-19: ≥ 20 nM
  IC50, cell survival, BxPC-3: 3 pM
  IC50, cell survival, Colo205: 2 pM
  IC50, cell survival, H226: 24 pM
  IC50, cell survival, H2052: 4 pM
  IC50, cell survival, H2122: 1 pM
  IC50, cell survival, HAAE-1: ≥ 20 nM
  IC50, cell survival, Huvec: ≥ 20 nM
  IC50, cell survival, Jurkat: 3 pM
  IC50, cell survival, M30: ≥ 20 nM
  IC50, cell survival, Malme-3: ≥ 20 nM
  IC50, cell survival, MiaPaCa-2: 28 pM
  IC50, cell survival, Molt4: 2 pM
  IC50, cell survival, Panc-1: 9 pM
  IC50, cell survival, WI-38: ≥ 20 nM
[12]
  EC50, caspase 3/7 in Colo205 tumor after a single dose in mice, indirect response model: 0.365 ng/mg tissue
[13]
  Kd: 3.9 pM
[7]
  Kd: 2.2e-05 µM

B7: 11H6-hu tetra (11H6 hu tetramer) (VHH)
chain: EVQLLESGGGLVQPGGSLRLSCAASGTFDKINNMGWYRQAPGKQRDLVAQITPGGITDYADSVKGRFTISRDNSKNTLYLQMNSLRPEDTAVYYCNAEILKRAYIDVYVNYWGQGTLVTVSSGGGGSGGGGSGGGGSGGGGSGGGGSGGGGSGGGGSEVQLLESGGGLVQPGGSLRLSCAASGTFDKINNMGWYRQAPGKQRDLVAQITPGGITDYADSVKGRFTISRDNSKNTLYLQMNSLRPEDTAVYYCNAEILKRAYIDVYVNYWGQGTLVTVSSGGGGSGGGGSGGGGSGGGGSGGGGSGGGGSGGGGSEVQLLESGGGLVQPGGSLRLSCAASGTFDKINNMGWYRQAPGKQRDLVAQITPGGITDYADSVKGRFTISRDNSKNTLYLQMNSLRPEDTAVYYCNAEILKRAYIDVYVNYWGQGTLVTVSSGGGGSGGGGSGGGGSGGGGSGGGGSGGGGSGGGGSEVQLLESGGGLVQPGGSLRLSCAASGTFDKINNMGWYRQAPGKQRDLVAQITPGGITDYADSVKGRFTISRDNSKNTLYLQMNSLRPEDTAVYYCNAEILKRAYIDVYVNYWGQGTLVTVSS
[14]
  IC50, cell survival, Colo205: 20 pM
  IC50, cell survival, Jurkat: 16 pM
[15]
  IC50, cell survival, A549: > 10 nM
  IC50, cell survival, BxPC-3: 0.0154 nM
  IC50, cell survival, Colo205: 3.6 pM
  IC50, cell survival, H226: 0.172 nM
  IC50, cell survival, H2122: 4.1 pM
  IC50, cell survival, Jurkat (72): 0.7 pM
  IC50, cell survival, M30: > 10 nM
  IC50, cell survival, MiaPaCa-2: 0.0117 nM
  IC50, cell survival, Panc-1: 0.232 nM
  IC50, cell survival, T24: 0.0222 nM

From patent US20150259426A1 (Novartis, published 2015)
